# Experimental data: patent US20080160570
# B1: UBP1ΔC (UBP1 protease mutant) (protein)
# chain: GGDHLNYIWESWSEMTTNFRNNNSLSRWLPRSKFTHLDEEILKRGGFIAGLWNDGNTCFMNSWLQSLASSRELMEFLDNNWIRTYEEIEQNEHNEEGNGQESAQDEATHKKNTRKGGKWYGKHKKKLNRKSSSKEDEEKSQEPDITFSWALRDLLSALNAKYYRDKPYFKTNSLLKAMSKSPRKNILLGYDQEDAQEFFQNILAELESNWKSLNTEKLDTTPWAKSELPDDALWGQLNLGEWGTWYIPTEQIDPNSILHDKSIQNFTPFKLMTPLDGITAERIGCLQCGENGGIRYSWFSGLSLNLPNENIGSTLKLSQLLSDWSKPEIIEGWECNRCALTAAHSHLFGQLKEFEKKPEGSIPEKPINAWKDRWHQIEEWLAKPWIDDEDYKKLHTANMWRKCSKSKQILISRPPPLLSIHINRSWFDPRTYMIRKNNSKWLFKSRLNLAPWCCDINEINLDARLPMSKKEKAAQQDSSEDENIGGEYYTKLHERFEQEFEDSEEEKEYDDAEGNYASHYNHTKDISNYDPLNGEWDGWTSDDEDEYIEETDALGNTIKKRIIEHSDWENENWKDNEELQEIDNWSLDEPKINWEDQLETSSDEEDWIPAPPINYARSFSTWPATPLTYSLRSWIWHYGTHNYGHYIAFRKYRGCWWRISDETWYWWDEAEWLSTPGWFMLFYEYDFDEETGKMKDDLEAILSNNEEDDEKEQEQKGWQEPKESQEQGEGEEQEEGQEQMKFERTEDHRDISGKDWNGSHHHHHH
# B2: UBP1ΔC2 (UBP1 protease mutant) (protein)
# chain: GGFIAGLVNDGNTCFMNSVLQSLASSRELMEFLDNNVIRTYEEIEQNEHNEEGNGQESAQDEATHKKNTRKGGKVYGKHKKKLNRKSSSKEDEEKSQEPDITFSVALRDLLSALNAKYYRDKPYFKTNSLLKAMSKSPRKNILLGYDQEDAQEFFQNILAELESNVKSLNTEKLDTTPVAKSELPDDALVGQLNLGEVGTVYIPTEQIDPNSILHDKSIQNFTPFKLMTPLDGITAERIGCLQCGENGGIRYSVFSGLSLNLPNENIGSTLKLSQLLSDWSKPEIIEGVECNRCALTAAHSHLFGQLKEFEKKPEGSIPEKPINAVKDRVHQIEEVLAKPVIDDEDYKKLHTANMVRKCSKSKQILISRPPPLLSIHINRSVFDPRTYMIRKNNSKVLFKSRLNLAPWCCDINEINLDARLPMSKKEKAAQQDSSEDENIGGEYYTKLHERFEQEFEDSEEEKEYDDAEGNYASHYNHTKDISNYDPLNGEVDGVTSDDEDEYIEETDALGNTIKKRIIEHSDVENENVKDNEELQEIDNVSLDEPKINVEDQLETSSDEEDVIPAPPINYARSFSTVPATPLTYSLRSVIVHYGTHNYGHYIAFRKYRGCWWRISDETVYVVDEAEVLSTPGVFMLFYEYDFDEETGKMKDDLEAILSNNEEDDEKEQEQKGVQEPKESQEQGEGEEQEEGQEQMKFERTEDHRDISGKDVNGSHHHHHH
# Target: fusion protein ubiquitin-growth hormone (hybrid polypeptide)
# Sequence (chain, as listed by the source): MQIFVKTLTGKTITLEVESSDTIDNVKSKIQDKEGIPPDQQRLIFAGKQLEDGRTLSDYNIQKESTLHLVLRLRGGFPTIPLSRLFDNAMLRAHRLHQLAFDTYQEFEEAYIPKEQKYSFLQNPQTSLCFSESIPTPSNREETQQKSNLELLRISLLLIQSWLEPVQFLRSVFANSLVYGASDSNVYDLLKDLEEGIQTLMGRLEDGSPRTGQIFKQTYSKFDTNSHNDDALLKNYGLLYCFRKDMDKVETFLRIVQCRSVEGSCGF
row,Protein,"enzymatic cleavage of the carrier protein ubiquitin from growth hormone (37° C., 1 h); amount of fusion protein per amount of enzyme"
1,B1,UBP1Δ C 1 µg-14 µg protein
2,B2,UBP1Δ C 2 1 µg-60 µg protein
